Reference: publication PMC7335806, “Molecular mechanisms that regulate export of the planar cell-polarity protein Frizzled-6 out of the endoplasmic reticulum” (The Journal of Biological Chemistry, 2020)

Assays:
Assay in all cases: pull-down; peptides (5 nmol) covalently coupled to thiopyridone-Sepharose 6B beads via the C-terminal cysteine; 2 μg purified His-tagged Sar1A preincubated with 500 μM GTPγS in HK buffer (100 mM KCl, 20 mM Hepes pH 7.2); 1 h at 4 °C; immunoblotting
Settings in all cases: both partners purified
[1] = target: T1, Sar1A (Δ2-17, H79G, D198A) (human, UniProt Q9NR31 10-198, Δ2-17 | H79G | D198A)
T1 construct: Sar1A, human, Δ2-17, H79G with D198A; preincubated with GTPγS; also called Sar1A bearing the D198A mutation; source: recombinant, purified
T1 sequence (Q9NR31 18-198 H79G/D198A): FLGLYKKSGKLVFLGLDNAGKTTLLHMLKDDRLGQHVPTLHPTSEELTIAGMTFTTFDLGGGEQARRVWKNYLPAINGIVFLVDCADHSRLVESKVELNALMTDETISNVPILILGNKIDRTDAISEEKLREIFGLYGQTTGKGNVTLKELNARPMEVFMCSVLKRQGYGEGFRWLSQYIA

[2] = target: T2, His-tagged human Sar1A^(Δ2-17, H79G) (human, UniProt Q9NR31 10-198, Δ2-17 | H79G)
T2 construct: Sar1A, human, H79G, depleted of its N-terminal amphipathic helix (Δ2-17); preincubated with GTPγS; also called Sar1A^(Δ2-17, H79G)-His; Sar1A (Δ2-17, H79G)-His; source: recombinant (cloned into pET-28a), purified; not shown: His, C-terminal, kept
T2 sequence (Q9NR31 18-198 H79G): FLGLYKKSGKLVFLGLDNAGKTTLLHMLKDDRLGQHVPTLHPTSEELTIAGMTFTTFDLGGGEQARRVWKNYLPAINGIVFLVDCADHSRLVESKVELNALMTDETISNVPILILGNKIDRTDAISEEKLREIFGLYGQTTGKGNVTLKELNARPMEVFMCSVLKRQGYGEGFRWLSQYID

[3] = target: T3, Sar1A (Δ2-17, E62A, E63A, H79G) (human, UniProt Q9NR31 10-198, Δ2-17 | E62A | E63A | H79G)
T3 construct: Sar1A, human, Δ2-17, H79G with E62A and E63A; preincubated with GTPγS; also called Sar1A (Δ2-17, H79G, E62A, E63A)-His; source: recombinant, purified; not shown: His, C-terminal, kept
T3 sequence (Q9NR31 18-198 E62A/E63A/H79G): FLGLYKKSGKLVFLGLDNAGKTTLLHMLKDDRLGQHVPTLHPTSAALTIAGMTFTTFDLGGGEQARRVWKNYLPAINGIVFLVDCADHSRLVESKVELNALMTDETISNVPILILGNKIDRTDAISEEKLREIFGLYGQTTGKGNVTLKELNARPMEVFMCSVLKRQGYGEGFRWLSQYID

binding result [1]: binds
binding result [2]: binds
binding result [3]: binds
B1: RRFR peptides (first intracellular loop of Fzd6) (peptide)
peptide: VRRFRYPERPC
notes: first intracellular loop of Fzd6 with the polybasic motif RRFR; added C-terminal cysteine residue, used to couple the peptide to thiopyridone-Sepharose 6B beads; Covalently linked to thiopyridone-Sepharose 6B through the added C-terminal cysteine; source: synthetic peptide, bought: GenScript
